Among the data in the NTF2 design screens of Basanta et al. (2020) are protease stability score values, retold here.

This data set is described as follows: protease stability score; higher = more stable; yeast display proteolysis, trypsin and chymotrypsin.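 Further: relative to predicted unfolded state with 0 unfolded-like and 1 meaning tenfold more protease.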
Sequence “REQEELMREYYEIHTHVLKTGNEDALEKLLDPNVRIHIDGKELHGMEAWEILNKRFDHIRHSHIHDFRIIGDKLHIDGRQKGVVDGVEREVHVHIVIEKIDGRWKLKSFYFR” returned a protease stability score of 1.2.
In turn, “REQEHEAKVAVDEWREDMETGDEHRLRELMDPDVRNIVGDKELHGREAVEFLITQIDHVKHIHVRHLDIQGDYIRFEGEINIHVNGRDRTLDVELYFIKINGRWHIHKLRFD” came in with a protease stability score of 1.66.
With “RESDEEREEFYKLLMHAYETGDERILNELMDPNVQIHQGEWHLHGRKDLRRRFKHLRIDHVDHITRDMRVVGDKIEVHGHIIVEGTVDGVRDTKSFDVHILTEKIDGQWFIKSVHIR” the figure was 0.903; with “RETEEEIRHAHELLLEAEQTGDEHILHHMLDPNVRFQVGDKHIHGRENFMKQFRKLWEDFGVDHIEIRLKEMRVFENRVHVRGELIIRVGDKEMRTKHIEVSEKIDGKWLLHSVKFE”, 1.14; with “REWKEEMLRFLTRWNKAYKTGNEQELNKLADPNVRVDINGKQLHGRELATLIVSELRIEETHVKMDTFRIVGEKAEIDSRLEIHGVYDGVKMDTHHEVVIILRKVDGQWHLTTMEER”, 0.382.
Sequence “RHEEEVLEHWMRLYIEALLTGDEHTLHRLLDPNAKVHIDGRDVVGREEIVRWLREFWNEIRIKHLTISDLKIYGEYVHITGTLNVQVNGQTEHRRIEIDLVIIDGVFKESEVRIH” showed a protease stability score of 2.39.
The sequence “RHEERHLEEKLQRLLHAWLTGDEDELTELADPDVRLKINGQHYIGWEQFFKALTDLRREMRIHDLKIKRKEIDGDKLVLDGETDGEINGVKRLHKTEIIIIMIDGRLRRVEFRQH” had a protease stability score of 0.618.
With “RKEEDEARKFLHTYIELMRTGDEDNLKEFVDPHVRLEVGDKRVVGWDRYVENVVELIEKVPNLRIHIDSVRAIGNWLHVDGTLIQGDKHREIHLHLQKIDGRWILTHQHVR” the figure was 1.34; with “RKEEEDLHKLLEHLSENYWTGNEEMFNHLADPHTRFEIRIGEFTIEDHGRERIKELVEWLLRFLGANHSHLTSIRVVGDKFHVNSLIHVDGREHTLHIIFVFINGRLTHYSMEVR”, 1.35; with “RQEEHDMEYAREIVERVLDTGDEHLMEEYFDPNAKLRIGDKEDHGREVFAHWVREIRVRHVQLTDHRLVGDKLEFDIELDININGREHRTKVHLIIRKVNGKWFIQHVEIR”, 1.19.
With “RSEEHEAKDKVREWVEAYLTGDEDHLRRLHDPDMRFNWNGVEIHGMEEFSHWMHKYMYELGVDHTHVTVRHIEFYGDKIHADTKLFIRQGDKEREHHSQVHIEVINGQFKRLEIREH” the figure was 0.829; with “SAEEHAQRVILELLIEAYETGDEDMLRRLFDPNVRIEIGDKDFVGREDFDHLLERVKNVVFHEIRLRDVKVYNGKVEDNGEINIRYGDKSRTHQVKIVMIKVDGRWMLHDFEIK”, 1.96.
In turn, “SDAERHSQEVLRLWIKAAKTGDEDKFRNYIDPHVRVEINGKEIHGRDILLEEMRRRDVIRHVRVTDSRHYDGVVIMDVEVDGHVNGRDVETQTTSFIIKIDGKWVWQSFVQI” displayed a protease stability score of 0.98.
With “SDDEEDVWRMAEIILKLFYTGDEEKFRNLADPNVRLNFNGRNFIGRENLEKHLRELRIHRIELREMDLKVINGRAEVRVRGFVDGEIDGQRYHSEVRLIMIITKVDGRWIIESIEFEQL”, the protease stability score is 2.59.
In turn, “SDDEEEVLRLMDHILHALWTGDWKHLEENMDPNVRSHINGQDVHGMERVVEFILRELKELRFEHLHIEHVEIIGNKATLHYRVDGHINGRRINRRVHLEVTMVNGRVKQVIFFNE” gave a protease stability score of 2.08.
With “SDDEHAAHLIIFIWTFALITGDEQTLKELLDPNVKNEFNGVELHGREQVEEHVRRYDWVTDFKFRVDDIQHQGEKIILDGTLVITMEFDGRREDIKSRFILIVRKVDGKWHLERLIIV”, the protease stability score stood at 1.86.
Take “SDDEQNVRDTFTEFVESMETGDEDHMLEMVDPHVRIEFENHSHIGRDNVHRWILFFKNATLRWKLERMHVYDGRVEIHSRMEVEVNGREIEFNIILHVRKVDGKWVIHEIRIH”: the protease stability score turned out to be 1.14.
Sequence “SDDEREDRIAIDILLRSTETGDEDTVRHMFDPNARVDVDGREIHGRDASKLFMERVDHIHEVKIDDIKTINGRVHNEGTWYGEYGDKKSELKVHWVLLKIDGRWLIKEVRIR” showed a protease stability score of 1.57.
